Patent US20210388087A1 (Chugai, published 2021)
Positions count from the first letter of the chain named. Blank lines part the entries; values can stand above or below the binder they belong to.

Target: T1, CD3 epsilon homodimer protein (UniProt P07766 23-126)
T1 construct: also called CD3 (CD3 epsilon)
Assay: SPR, antibody over immobilised CD3e homodimer;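 note: SPR at 25 °C with CD3 epsilon homodimer amine-coupled to a CM4 sensor chip and antibody flowed over as analyte in HBS-EP+ running buffer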
Experimental: An appropriate amount of CD3 epsilon homodimer protein was immobilized onto Sensor chip CM4 (GE Healthcare Japan Corp.) by the amine coupling method. Then, the antibody having an appropriate concentration was injected thereto as an analyte and allowed to interact with the CD3 epsilon homodimer protein on the sensor chip. Then, the sensor chip was regenerated by the injection of 10 mmol/L glycine-HCl (pH 1.5). The assay was conducted at 25 degrees C., and HBS-EP+(GE Healthcare Japan Corp.) was used as a running buffer. […] Each parameter was calculated using Biacore T200 Evaluation Software (GE Healthcare Japan Corp.).

T1 sequence (P07766 23-126): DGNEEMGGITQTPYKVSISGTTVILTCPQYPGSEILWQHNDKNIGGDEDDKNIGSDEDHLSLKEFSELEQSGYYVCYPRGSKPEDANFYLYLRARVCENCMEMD

B1: CE115HA000/GLS3000 G89R (antibody, IgG1, name in Kabat numbering, V domains shown)
VH: QVQLVESGGGVVQPGRSLRLSCAASGFTFSNAWMHWVRQAPGKGLEWVAQIKAKSNNYATYYAESVKGRFTISRDDSKNSLYLQMNSLKTEDTAVYYCRYVHYGAYYGVDAWGQGTTVTVSS
VL: DIVMTQSPLSLPVTPGEPASISCRSSQSLVHSNRNTYLHWYQQKPGQAPRLLIYKVSNRFSGVPDRFSGSGSGTDFTLKISRVEAEDVGVYYCRQGTQVPYTFGQGTKLEIK
notes: one-arm IgG1
KD ratio to GLS3000: 4130

B2: CE115HA000/GLS3000 G89V (antibody, IgG1, name in Kabat numbering, V domains shown)
VH: B1 VH
VL: B1 VL with R94V
notes: one-arm IgG1
KD ratio to GLS3000: 1.4

B4: CE115HA000/GLS3000 G89W (antibody, IgG1, name in Kabat numbering, V domains shown)
VH: B1 VH
VL: B1 VL with R94W
notes: one-arm IgG1
KD ratio to GLS3000: 2.2

B6: CE115HA000/GLS3000 G89Y (antibody, IgG1, name in Kabat numbering, V domains shown)
VH: B1 VH
VL: B1 VL with R94Y
notes: one-arm IgG1
KD ratio to GLS3000: 1.12

B7: CE115HA000/GLS3000 G89T (antibody, IgG1, name in Kabat numbering, V domains shown)
VH: B1 VH
VL: B1 VL with R94T
notes: one-arm IgG1
KD ratio to GLS3000: 1.1

B8: CE115HA000/GLS3000 G91T (antibody, IgG1, name in Kabat numbering, V domains shown)
VH: B1 VH
VL: B1 VL with R94G, G96T
notes: one-arm IgG1
KD ratio to GLS3000: 39.9

B9: CE115HA000/GLS3000 G91Y (antibody, IgG1, name in Kabat numbering, V domains shown)
VH: B1 VH
VL: B1 VL with R94G, G96Y
notes: one-arm IgG1
KD ratio to GLS3000: 33.8

B11: CE115HA000/GLS3000 G91A (antibody, IgG1, name in Kabat numbering, V domains shown)
VH: B1 VH
VL: B1 VL with R94G, G96A
notes: one-arm IgG1
KD ratio to GLS3000: 28.1

B12: CE115HA000/GLS3000 H27dA (antibody, IgG1, name in Kabat numbering, V domains shown)
VH: B1 VH
VL: B1 VL with H31A, R94G
notes: one-arm IgG1
KD ratio to GLS3000: 2.57

B13: CE115HA000/GLS3000 G91P (antibody, IgG1, name in Kabat numbering, V domains shown)
VH: B1 VH
VL: B1 VL with R94G, G96P
notes: one-arm IgG1
KD ratio to GLS3000: 23.1

B14: CE115HA000/GLS3000 G91E (antibody, IgG1, name in Kabat numbering, V domains shown)
VH: B1 VH
VL: B1 VL with R94G, G96E
notes: one-arm IgG1
KD ratio to GLS3000: 48.5

B17: CE115HA000/GLS3000 G91D (antibody, IgG1, name in Kabat numbering, V domains shown)
VH: B1 VH
VL: B1 VL with R94G, G96D
notes: one-arm IgG1
KD ratio to GLS3000: 44.8

Other lines, results leading:

KD ratio to GLS3000: 42.3
B3: CE115HA000/GLS3000 H27dE (antibody, IgG1, name in Kabat numbering, V domains shown)
VH: B1 VH
VL: B1 VL with H31E, R94G
notes: one-arm IgG1

KD ratio to GLS3000: 3.37
B5: CE115HA000/GLS3000 H27dL (antibody, IgG1, name in Kabat numbering, V domains shown)
VH: B1 VH
VL: B1 VL with H31L, R94G
notes: one-arm IgG1

KD ratio to GLS3000: 3.51
B10: CE115HA000/GLS3000 H27dG (antibody, IgG1, name in Kabat numbering, V domains shown)
VH: B1 VH
VL: B1 VL with H31G, R94G
notes: one-arm IgG1

KD ratio to GLS3000: 2.05
B15: CE115HA000/GLS3000 H27dF (antibody, IgG1, name in Kabat numbering, V domains shown)
VH: B1 VH
VL: B1 VL with H31F, R94G
notes: one-arm IgG1

KD ratio to GLS3000: 7.77
B16: CE115HA000/GLS3000 H27dI (antibody, IgG1, name in Kabat numbering, V domains shown)
VH: B1 VH
VL: B1 VL with H31I, R94G
notes: one-arm IgG1

KD ratio to GLS3000: 3.8
B18: CE115HA000/GLS3000 H27dK (antibody, IgG1, name in Kabat numbering, V domains shown)
VH: B1 VH
VL: B1 VL with H31K, R94G
notes: one-arm IgG1
